# Measured values: article PMC9814837, “Design of a gold clustering site in an engineered apo-ferritin cage” (Communications Chemistry, 2022)
# B1: apo-R168H/L169C-rHLFr (recombinant L-chain ferritin from horse liver, R168H/L169C mutant) (natural protein, UniProt P02791 1-175, looked up)
# chain: MSSQIRQNYSTEVEAAVNRLVNLYLRASYTYLSLGFYFDRDDVALEGVCHFFRELAEEKREGAERLLKMQNQRGGRALFQDLQKPSQDEWGTTLDAMKAAIVLEKSLNQALLDLHALGSAQADPHLCDFLESHFLDEEVKLIKKMGDHLTNIQRLVGSQAGLGEYLFEHCTLKHD
# notes: ferritin L-chain, horse liver, recombinant (rHLFr); last residue named is Asp174; Crystallised apo and after reaction with 10-400 equiv. of chloro(dimethylsulfide)gold(I); also called Au(10 equiv.)-apo-R168H/L169C-rHLFr; Au(50 equiv.)-apo-R168H/L169C-rHLFr; source: E. coli (NovaBlue, vector pMK2), purified (heat treatment, Q Sepharose, S-300); copies: 24
# Target: the molecule itself
# Assay: crystal structure; hanging-drop vapor diffusion, 0.5-1 M (NH4)2SO4 and 10-20 mM CdSO4, 20 °C; data at 100 K; space group F432, cage rebuilt by symmetry; apo protein and composites after reaction with 10-400 equiv. Au(I) precursor
protein,measurement,value
B1,binding result,binds
